# B1: ERE (Xenopus vitellogenin A2 estrogen response element) (dsDNA)
# DNA 1: GTCCAAAGTCAGGTCACAGTGACCTGATCAAAGTT
# DNA 2: AACTTTGATCAGGTCACTGTGACCTGACTTTGGAC
# modifications: amine on the 5' G residue of one strand, covalently linked to optical fiber via GMBS
# Tests used:
# Details in all cases: protein: extract; tags: Cy5-labelled; expressed as ubiquitin fusion in Saccharomyces cerevisiae AF103 (YEpE10 plasmid); yeast extract preparation
# [1] = biological target: T1, human estrogen receptor (recombinant hER, 65 kDa) (Homo sapiens, UniProt P03372 P03372:1-595); experiment: evanescent fiber optic sensor; with 1e-6 M estrone; control 3.51
# Method: (§1) This solution comprised said calibration standard of component 6a. […] This receptor preparation was used as the calibration solution. Immediately after preparation it was pipetted in 135 μl aliquots into microcentrifuge tubes, snap frozen and stored at −80° C. They were not thawed again until they were used with the fiber sensor. Sample solutions of component 6a were similarly prepared, except that the dilution at the end with receptor buffer gave a total receptor concentration of […]. If the solution was to be used with an ERE fiber (component 1a type 2), then polydeoxyinosinic-deoxycytidylic acid sodium salt was added to the receptor buffer to prevent nonspecific binding to the ERE fiber. Solutions containing 4.4×10⁻¹⁰ M Cy5-tagged-estrogen-receptor solution and in addition to a predetermined amount of estrogen or estrogen mimic were created to test the impact of said estrogen or estrogen mimic.
# (§2) 12) Using fiber sensors of component 1a type 2, and the foregoing procedure the S/C value was calculated for several different estrogens tested at 10⁻⁶ M concentration.
# [2] = biological target: T1, human estrogen receptor (recombinant …); experiment: evanescent fiber optic sensor; with 1e-6 M diethylstilbestrol; control 3.51
# Method: as §1, §2
# [3] = biological target: T1, human estrogen receptor (recombinant …); experiment: evanescent fiber optic sensor; with 1e-6 M zearalenone; control 3.51
# Method: as §1, §2
# [4] = biological target: T1, human estrogen receptor (recombinant …); experiment: evanescent fiber optic sensor; control, no ligand; 4.4e-10 M receptor; 500 mM KCl phosphate pH 7.5, poly(dI-dC)
# Method: as §1, §2
# T1 sequence (P03372 whole entry, one chain of several): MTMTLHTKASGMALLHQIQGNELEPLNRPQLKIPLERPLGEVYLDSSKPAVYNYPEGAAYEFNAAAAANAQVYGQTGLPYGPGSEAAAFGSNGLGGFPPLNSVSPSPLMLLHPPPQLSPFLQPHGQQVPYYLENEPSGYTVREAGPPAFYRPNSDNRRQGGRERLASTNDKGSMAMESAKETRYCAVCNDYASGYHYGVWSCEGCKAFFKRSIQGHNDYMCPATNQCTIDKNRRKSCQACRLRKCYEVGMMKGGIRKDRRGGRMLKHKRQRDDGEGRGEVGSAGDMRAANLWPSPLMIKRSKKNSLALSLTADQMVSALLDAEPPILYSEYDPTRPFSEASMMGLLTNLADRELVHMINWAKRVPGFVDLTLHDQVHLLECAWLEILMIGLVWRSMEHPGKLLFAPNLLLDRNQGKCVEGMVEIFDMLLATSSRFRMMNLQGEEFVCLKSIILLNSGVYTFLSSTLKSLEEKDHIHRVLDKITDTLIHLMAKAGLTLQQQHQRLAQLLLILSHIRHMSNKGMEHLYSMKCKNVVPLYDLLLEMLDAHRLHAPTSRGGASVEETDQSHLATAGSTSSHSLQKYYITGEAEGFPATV
binder,measurement,setting,value
B1,binding signal,[1],4.44 S/C ratio
same,binding signal,[2],4.87 S/C ratio
same,binding signal,[3],5.01 S/C ratio
same,binding signal,[4],3.51 S/C ratio
